Assay results taken from the supplement of paper PMC10126150.
± gives the standard deviation of the averaged measurements.

System: ATP
Test: switch fluorescence ratio, 500 uM ATP over buffer (Cy3 cluster intensity, sum of 5 cycles each) (fold (ratio)); higher = stronger signal-on switching upon ATP binding; sequences stand for … in TCGTCGGCAGCGTCAGATGTGTATAAGAGACAGTTTTTTTTTTTTTTTTTTTTTTTTT…TC
Conditions: aptamer strand: ATP DNA aptamer (quencher-CACCTGGGGGAGTATTGCGGAGGAAGG + anchor), 100 nM annealed; ATP concentration: 500 uM
Method in brief: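 Cy3-labelled switching-strand clusters on a modified Illumina MiSeq flow-cell were annealed to 100 nM quencher-labelled ATP aptamer and imaged first in selection buffer, then after 15 min with 500 uM ATP at 22 °C. NaOH stripping and re-annealing separated each of five buffer/ATP cycles, and clusters outside 100-1000 RFU were excluded. The fluorescence ratio sums target-cycle Cy3 intensity over buffer-cycle Cy3 intensity per cluster and averages it per switch-domain sequence.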
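Also: ATP exposure 15 min at 22 °C before imaging.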

TAAATTGGGG
switch fluorescence ratio: 0.983 ± 0.024

TAAATTTAAT
switch fluorescence ratio: 0.982 ± 0.034

TAACAATTCC
switch fluorescence ratio: 1.26 ± 0.013

TAACACATTT
switch fluorescence ratio: 0.98 ± 0.059

TAACGAAGGA
switch fluorescence ratio: 1.03 ± 0.051

TAACGCCATC
switch fluorescence ratio: 1.51 ± 0.035

TAACGCTGTT
switch fluorescence ratio: 1.01 ± 0.0068

TAACGGAAAA
switch fluorescence ratio: 1 ± 0.053

TAACGGAGAC
switch fluorescence ratio: 1.35 ± 0.32

TAACGGAGGT
switch fluorescence ratio: 1.02 ± 0.014

TAACGGCATT
switch fluorescence ratio: 1.08 ± 0.037

TAACGGGGGA
switch fluorescence ratio: 1.01 ± 0.062

TAACGTAACA
switch fluorescence ratio: 1.26 ± 0.068

TAACGTATGG
switch fluorescence ratio: 1.03 ± 0.021

TAACTAAAGG
switch fluorescence ratio: 0.9971 ± 0.0099

TAACTACGAG
switch fluorescence ratio: 1.07 ± 0.011

TAACTAGGGG
switch fluorescence ratio: 1.49 ± 0.042

TAACTATAAG
switch fluorescence ratio: 1 ± 0.018

TAACTATTCC
switch fluorescence ratio: 1.23 ± 0.082

TAACTGGCGT
switch fluorescence ratio: 0.991 ± 0.04

TAACTGTAGG
switch fluorescence ratio: 1.02 ± 0.033

TAACTGTTCC
switch fluorescence ratio: 1.12 ± 0.11

TAAGAAAAAA
switch fluorescence ratio: 1.017 ± 0.0075

TAAGAAAACT
switch fluorescence ratio: 1.36 ± 0.22

TAAGAACGAT
switch fluorescence ratio: 0.987 ± 0.053

TAAGAAGGCG
switch fluorescence ratio: 0.9734 ± 0.0047

TAAGAAGTTT
switch fluorescence ratio: 0.996 ± 0.028

TAAGACGCAA
switch fluorescence ratio: 1.62 ± 0.12

TAAGACGTCC
switch fluorescence ratio: 1.016 ± 0.0088

TAAGAGACGA
switch fluorescence ratio: 0.98 ± 0.024

TAAGAGACGC
switch fluorescence ratio: 1.014 ± 0.0061

TAAGAGACGG
switch fluorescence ratio: 0.991 ± 0.056

TAAGAGATGT
switch fluorescence ratio: 0.978 ± 0.034

TAAGAGGGGC
switch fluorescence ratio: 1 ± 0.037

TAAGATAAAT
switch fluorescence ratio: 1 ± 0.021

TAAGATGGG
switch fluorescence ratio: 1.01 ± 0.019

TAAGATGTCA
switch fluorescence ratio: 1.02 ± 0.034

TAAGATTTTT
switch fluorescence ratio: 1.01 ± 0.032

TAAGCAAAAG
switch fluorescence ratio: 1.19 ± 0.1

TAAGCATGGA
switch fluorescence ratio: 1.04 ± 0.013

TAAGCCATTA
switch fluorescence ratio: 1.01 ± 0.0038

TAAGCCGAGG
switch fluorescence ratio: 0.987 ± 0.016

TAAGCGAGTG
switch fluorescence ratio: 0.9832 ± 0.0032

TAAGCGATCT
switch fluorescence ratio: 1.0192 ± 0.00013

TAAGCGGGCT
switch fluorescence ratio: 0.973 ± 0.024

TAAGCGTTGT
switch fluorescence ratio: 0.98 ± 0.054

TAAGCTCAAT
switch fluorescence ratio: 0.979 ± 0.012

TAAGCTGGAG
switch fluorescence ratio: 1.07 ± 0.14

TAAGCTGGGG
switch fluorescence ratio: 0.9861 ± 0.0052

TAAGCTTGGC
switch fluorescence ratio: 1.02 ± 0.026

TAAGCTTTTG
switch fluorescence ratio: 1.025 ± 0.0084

TAAGGAAAAG
switch fluorescence ratio: 1.01 ± 0.05

TAAGGACAGG
switch fluorescence ratio: 1.047 ± 0.0049

TAAGGAGAAT
switch fluorescence ratio: 0.9676 ± 0.0046

TAAGGCAAGG
switch fluorescence ratio: 1.03 ± 0.021

TAAGGCAATT
switch fluorescence ratio: 1.06 ± 0.041

TAAGGCGGTT
switch fluorescence ratio: 0.984 ± 0.021

TAAGGCTGTT
switch fluorescence ratio: 0.953 ± 0.023

TAAGGGAAAA
switch fluorescence ratio: 0.977 ± 0.023

TAAGGGAGTT
switch fluorescence ratio: 0.9874 ± 0.0095

TAAGGGATGG
switch fluorescence ratio: 0.973 ± 0.043

TAAGGGATGT
switch fluorescence ratio: 0.995 ± 0.049

TAAGGGGACG
switch fluorescence ratio: 1.02 ± 0.023

TAAGGGGGAC
switch fluorescence ratio: 1.01 ± 0.053

TAAGGGTACG
switch fluorescence ratio: 1.03 ± 0.058

TAAGGGTGGC
switch fluorescence ratio: 1.04 ± 0.035

TAAGGTATGA
switch fluorescence ratio: 1.002 ± 0.0076

TAAGGTATTT
switch fluorescence ratio: 1.01 ± 0.023

TAAGGTTATG
switch fluorescence ratio: 0.973 ± 0.017

TAAGGTTTAT
switch fluorescence ratio: 0.9979 ± 0.0072

TAAGTATAAT
switch fluorescence ratio: 0.999 ± 0.017

TAAGTATGAC
switch fluorescence ratio: 0.982 ± 0.032

TAAGTATTGG
switch fluorescence ratio: 0.977 ± 0.037

TAAGTGCCAC
switch fluorescence ratio: 1.01 ± 0.024

TAAGTGGAAG
switch fluorescence ratio: 1.01 ± 0.029

TAAGTGGGGC
switch fluorescence ratio: 0.957 ± 0.085

TAAGTGGTTG
switch fluorescence ratio: 0.989 ± 0.052

TAAGTGTTGC
switch fluorescence ratio: 1 ± 0.037

TAAGTTGTGC
switch fluorescence ratio: 1.02 ± 0.15

TAATAAAAGG
switch fluorescence ratio: 0.998 ± 0.041

TAATAAACAA
switch fluorescence ratio: 1 ± 0.024

TAATAAGAGA
switch fluorescence ratio: 0.985 ± 0.015

TAATAAGGAG
switch fluorescence ratio: 1.004 ± 0.0074

TAATAAGTTT
switch fluorescence ratio: 1.0262 ± 0.00033

TAATACGTTA
switch fluorescence ratio: 1.197 ± 0.0026
